# Test results as given in article PMC7916210, “Identification of Novel phoP-phoQ Regulated Genes that Contribute to Polymyxin B Tolerance in Pseudomonas aeruginosa”.
# Molecular target: PhoP-His (UniProt A0A0H2Z7U0 1-225)
# Test: EMSA; PhoP 0, 2, 4 or 8 uM
# Settings: protein: recombinant; tags: C-terminal 6xHis; chain copies: 2; blunt
row,Binder,binding result
1,PPA14_46900 promoter probe (dsDNA) DNA 1: GGTTCGTTCAGAAATTGTTCAGGCTTCGTTCAGGCCCGATTCAGGCCGGGTTCAGCAGAA DNA 2: TTCTGCTGAACCCGGCCTGAATCGGGCCTGAACGAAGCCTGAACAATTTCTGAACGAACC,binds
2,PPA14_11970 promoter probe (dsDNA) DNA 1: TGTCTTTGTAACAGGAAATCCTCGATGTTCAGTCCGAAACCGAGCTGCGCGCCCCAGTTG DNA 2: CAACTGGGGCGCGCAGCTCGGTTTCGGACTGAACATCGAGGATTTCCTGTTACAAAGACA,binds
3,PPA14_52350 promoter probe (dsDNA) DNA 1: CATTTGCTGGTGTTCGTTCAGCGATGGTTCAGCTTGCCGTGGGCATAGTGGCGGCTTGCA DNA 2: TGCAAGCCGCCACTATGCCCACGGCAAGCTGAACCATCGCTGAACGAACACCAGCAAATG,binds
4,PPA14_50740 promoter probe (dsDNA) DNA 1: AATCGATTCAGCAATGGTACAGGTTCGTTCAGTTTCGACCGAACCCTCCCGCTTTCATCG DNA 2: CGATGAAAGCGGGAGGGTTCGGTCGAAACTGAACGAACCTGTACCATTGCTGAATCGATT,binds
